# Patent US20220235103A1 (Molecular Partners, published 2022)
# B1: ALE058 (designed binder)
# chain: MRGSHHHHHHGSDLGKKLLEAARAGQDDEVRELLKAGADVNAKDYFSHTPLHLAARNGHLKIVEVLLKAGADVNAKDFAGKTPLHLAANEGHLEIVEVLLKAGADVNAQDIFGKTPADIAADAGHEDIAEVLQKAAGSPTPTPTTPTPTPTTPTPTPTGSDLGKKLLEAARAGQDDEVRELLKAGADVNAKDYFSHTPLHLAARNGHLKIVEVLLKAGADVNAKDFAGKTPLHLAANEGHLEIVEVLLKAGADVNAQDIFGKTPADIAADAGHEDIAEVLQKAAGSPTPTPTTPTPTPTTPTPTPTGSDLGKKLLQAARAGQLDEVRELLKAGADVNAKDQEGITPLHVAAHQGHLEIVEVLLKAGADVNAKDVWGRTPLHLAAWRGHLEIVEVLLKAGADVNAKDHAGATPLHAAALSGHLEIVEVLLKAGADVNAQDKSGKTPADLAARAGHQDIAEVLQKAAGSPTPTPTTPTPTPTTPTPTPTGSDLGHKLLLAAQAGQDDEVRILLAAGADVNAKDVFGQTPLHVAAVAGHLEIVEVLLKAGADVNAKDSIGYTPLHHAARVGHLEIVEVLLKAGADVNAQDWIGITPADLAAFEGHEDIAEVLQKAAGSPTPTPTTPTPTPTTPTPTPTGSDLGQKLLHAAQYGQDDEVRILLAAGADVNAKDKQGNTPLHIAAFHGHLEIVEVLLKAGADVNAKDQWGLTPLHLAAAWGHLEIVEVLLKAGADVNAQDNYGQTPADLAAESGHEDIAEVLQKAA
# B2: ALE049 (designed binder)
# chain: MRGSHHHHHHGSDLGKKLLEAARAGQDDEVRELLKAGADVNAKDYFSHTPLHLAARNGHLKIVEVLLKAGADVNAKDFAGKTPLHLAANEGHLEIVEVLLKAGADVNAQDIFGKTPADIAADAGHEDIAEVLQKAAGSPTPTPTTPTPTPTTPTPTPTGSDLGKKLLEAARAGQDDEVRELLKAGADVNAKDYFSHTPLHLAARNGHLKIVEVLLKAGADVNAKDFAGKTPLHLAANEGHLEIVEVLLKAGADVNAQDIFGKTPADIAADAGHEDIAEVLQKAAGSPTPTPTTPTPTPTTPTPTPTGSDLGKKLLQAARAGQLDEVRELLKAGADVNAKDREGITPLHLAAQHGHLEIVEVLLKAGADVNAKDVWGRTPLHLAAWQGHLEIVEVLLKAGADVNAKDLAGATPLHVAALYGHLEIVEVLLKAGADVNAQDKSGKTPADLAARAGHQDIAEVLQKAAGSPTPTPTTPTPTPTTPTPTPTGSDLGKKLLQAARAGQLDEVRELLKAGADVNAKDREGKTPLHVAAQEGHLEIVEVLLKAGADVNAKDVWGRTPLHLAAWIGHLEIVEVLLKAGADVNAKDVSGATPLHAAALHGHLEIVEVLLNAGADVNAQDKSGKTPADLAARAGHQDIAEVLQKAAGSPTPTPTTPTPTPTTPTPTPTGSDLGKKLLQAARAGQLDEVRELLKAGADVNAKDQEGITPLHVAAHQGHLEIVEVLLKAGADVNAKDVWGRTPLHLAAWRGHLEIVEVLLKAGADVNAKDHAGATPLHAAALSGHLEIVEVLLKAGADVNAQDKSGKTPADLAARAGHQDIAEVLQKAA
# Legend:
# Assay in all cases: cell-based or functional assay
# [1] = target: spike protein of live SARS-CoV-2 (2019-nCoV/IDF0372/2020) (SARS-CoV-2, UniProt P0DTC2 14-1273)
# [2] = target: T1, SARS-CoV-2 spike protein G476S (SARS-CoV-2, UniProt P0DTC2 14-1273)
# [3] = target: SARS-CoV-2 spike protein D614G x Q675H (SARS-CoV-2, UniProt P0DTC2 14-1273)
# [4] = target: T2, SARS-CoV-2 spike protein V483A (SARS-CoV-2, UniProt P0DTC2 14-1273)
# [5] = target: T3, SARS-CoV-2 spike protein D614G (SARS-CoV-2, UniProt P0DTC2 14-1273)
# [6] = target: T4, SARS-CoV-2 spike protein, wild type (Wuhan) (SARS-CoV-2, UniProt P0DTC2 14-1273)
# [7] = target: T4, SARS-CoV-2 spike protein, wild type …; remark: listed apart in the source
# [8] = target: SARS-CoV-2 spike protein P479S (SARS-CoV-2, UniProt P0DTC2 14-1273)
# [9] = target: SARS-CoV-2 spike protein S477N (SARS-CoV-2, UniProt P0DTC2 14-1273)
# [10] = target: T1, SARS-CoV-2 spike protein G476S; remark: listed apart in the source
# [11] = target: SARS-CoV-2 spike protein variant B.1.351 (SARS-CoV-2, UniProt P0DTC2 14-1273)
# [12] = target: SARS-CoV-2 spike protein F486V (SARS-CoV-2, UniProt P0DTC2 14-1273)
# [13] = target: SARS-CoV-2 spike protein Q493K (SARS-CoV-2, UniProt P0DTC2 14-1273)
# [14] = target: SARS-CoV-2 spike protein N439K (SARS-CoV-2, UniProt P0DTC2 14-1273)
# [15] = target: SARS-CoV-2 spike protein E484K (SARS-CoV-2, UniProt P0DTC2 14-1273)
# [16] = target: SARS-CoV-2 spike protein Y453F (SARS-CoV-2, UniProt P0DTC2 14-1273)
# [17] = target: T2, SARS-CoV-2 spike protein V483A; remark: listed apart in the source
# [18] = target: SARS-CoV-2 spike protein N501Y (SARS-CoV-2, UniProt P0DTC2 14-1273)
# [19] = target: SARS-CoV-2 spike protein F490S (SARS-CoV-2, UniProt P0DTC2 14-1273)
# [20] = target: T3, SARS-CoV-2 spike protein D614G; remark: listed apart in the source
# [21] = target: SARS-CoV-2 spike protein T478I (SARS-CoV-2, UniProt P0DTC2 14-1273)
# [22] = target: SARS-CoV-2 spike protein K417E (SARS-CoV-2, UniProt P0DTC2 14-1273)
# [23] = target: T4, SARS-CoV-2 spike protein, wild type …; remark: listed apart in the source
# [24] = target: SARS-CoV-2 spike protein G446V (SARS-CoV-2, UniProt P0DTC2 14-1273)
# [25] = target: SARS-CoV-2 spike protein A222V (SARS-CoV-2, UniProt P0DTC2 14-1273)
binder,measurement,setting,value
B1,IC50 LV (live virus cytopathic effect assay),[1],0.1 nM
same,Potency of inhibition of SARS-CoV-2 spike protein variants (IC50),[2],0.0145 nM
same,Potency of inhibition of SARS-CoV-2 spike protein variants (IC50),[3],0.0224 nM
same,Potency of inhibition of SARS-CoV-2 spike protein variants (IC50),[4],0.0324 nM
same,Potency of inhibition of SARS-CoV-2 spike protein variants (IC50),[5],0.00464 nM
same,Potency of inhibition of SARS-CoV-2 spike protein variants (IC50),[6],0.00548 nM
same,"IC50 (read off the curve), SARS-CoV-2 VSV pseudotype virus, no competitor",[7],~0.1 nM
B2,IC50 LV (live virus cytopathic effect assay),[1],0.025 nM
same,Potency of inhibition of SARS-CoV-2 spike protein variants (IC50),[2],0.0271 nM
same,Potency of inhibition of SARS-CoV-2 spike protein variants (IC50),[3],0.0121 nM
same,Potency of inhibition of SARS-CoV-2 spike protein variants (IC50),[4],0.0275 nM
same,Potency of inhibition of SARS-CoV-2 spike protein variants (IC50),[5],0.0118 nM
same,Potency of inhibition of SARS-CoV-2 spike protein variants (IC50),[6],0.0165 nM
same,VSV Pseudotype Neutralization Assay IC50,[8],2.1 ng/mL
same,VSV Pseudotype Neutralization Assay IC50,[9],1.9 ng/mL
same,VSV Pseudotype Neutralization Assay IC50,[10],1.5 ng/mL
same,VSV Pseudotype Neutralization Assay IC50,[11],3 ng/mL
same,VSV Pseudotype Neutralization Assay IC50,[12],> 100 ng/mL
same,VSV Pseudotype Neutralization Assay IC50,[13],7.9 ng/mL
same,VSV Pseudotype Neutralization Assay IC50,[14],1.3 ng/mL
same,VSV Pseudotype Neutralization Assay IC50,[15],2.7 ng/mL
same,VSV Pseudotype Neutralization Assay IC50,[16],3.2 ng/mL
same,VSV Pseudotype Neutralization Assay IC50,[17],2.3 ng/mL
same,VSV Pseudotype Neutralization Assay IC50,[18],0.5 ng/mL
same,VSV Pseudotype Neutralization Assay IC50,[19],3.8 ng/mL
same,VSV Pseudotype Neutralization Assay IC50,[20],2.4 ng/mL
same,VSV Pseudotype Neutralization Assay IC50,[21],2.7 ng/mL
same,VSV Pseudotype Neutralization Assay IC50,[22],0.5 ng/mL
same,VSV Pseudotype Neutralization Assay IC50,[23],1 ng/mL
same,VSV Pseudotype Neutralization Assay IC50,[24],1.7 ng/mL
same,VSV Pseudotype Neutralization Assay IC50,[25],2.2 ng/mL
same,"IC50 (read off the curve), SARS-CoV-2 VSV pseudotype virus, no competitor",[7],~0.1 nM
